Patent US20050176073A1, “Cell proliferation associated with CCX CKR expression” (ChemoCentryx, Inc., priority 2004, published 2005)

Assays:
[1] = test system: untransfected HEK293 cells; experiment: PowerBlot protein expression analysis, untransfected HEK293 cells; format: cell-based, human; settings: untransfected HEK293 cells contacted with ligand; FIG. 2
Procedure: (§1) Studies were also conducted to assess what effect CCX CKR activity had on protein expression. This was analyzed by determining protein levels for both unstransfected HEK293 cells, and HEK293 cells transfected with CCX CKR, grown both in the presence and absence of the ligands ELC, SLC or TECK. Protein levels were determined using the BD PowerBlot™ technology developed by Becton Dickinson, and available from BD Biosciences Pharmingen. In general, this analysis involves separating proteins in cellular lysates by polyacrylamide electrophoresis and then conducting a Western blot with over 1,000 monoclonal antibodies specific for certain proteins. Antibodies that bind to a protein band on the gel are visualized using a digital camera that detects chemiluminescence from the bound antibody. The amount of protein can be determined based upon the strength of the signal. Further details regarding the application of this technology are discussed by Lorenz, P., et al. Proteomics (2003) 3:991-1002; Malakhov, M. P., et al. (2003) J. Biol. Chem. .278:16608-13; and Yoo, G. H., et al. (2002) Clin Cancer Res. 8:3910-21.
(§2) FIG. 2 provides a chart that provides a comparison of the number of proteins that were increased and decreased under different sets of conditions.

[2] = test system: HEK293 cells transfected with CCX CKR; experiment: PowerBlot protein expression analysis, HEK293 cells transfected with CCX CKR; format: cell-based, human; settings: relative to cells simply transformed with CCX CKR; FIG. 2
Procedure: as §1, §2

CCX CKR [3] = target: T1, CCX CKR (Homo sapiens, UniProt Q9NPB9); settings: WO 01/27146; cited from earlier work
T1 sequence (Q9NPB9 1-350): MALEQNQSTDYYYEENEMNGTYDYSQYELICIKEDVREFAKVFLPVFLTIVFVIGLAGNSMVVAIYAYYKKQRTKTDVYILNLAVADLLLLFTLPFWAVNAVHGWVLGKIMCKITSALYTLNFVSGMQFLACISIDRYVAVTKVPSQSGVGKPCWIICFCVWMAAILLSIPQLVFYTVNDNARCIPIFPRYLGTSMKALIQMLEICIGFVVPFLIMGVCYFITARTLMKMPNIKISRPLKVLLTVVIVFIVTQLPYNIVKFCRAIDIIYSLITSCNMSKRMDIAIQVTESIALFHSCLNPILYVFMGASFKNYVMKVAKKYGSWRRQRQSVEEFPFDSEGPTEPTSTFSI

CCX CKR [4] = target: T1, CCX CKR; experiment: Small molecule modulators of CCX CKR function
From the text: Other compounds are based upon agonists and antagonists for CCX CKR, which have been identified and are shown below: […]

[5] = test system: HEK293 cells transfected with CCX CKR; experiment: Cell growth curves (hemacytometer counting) of HEK293 cells transfected with CCX CKR; format: cell-based, human; settings: ligand in growth medium, growth curves over 6 days; FIG. 4
Procedure: Another set of experiments were conducted to ascertain whether CCX CKR plays a role in cell growth. One experiment involved culturing (1) untransfected HEK293 cells (ATCC #CRL 1573) (control), (2) HEK 293 cells transfected with CCX CKR as a polyclonal mixture, and (3) three different clones of HEK293 stably transfected with CCX CKR, thus giving a total of […] different cell cultures. Each of these cultures were obtained by seeding 50,000 cells/well in triplicate. The three different clones (clones 9, 12 and 13) were obtained by a limited dilution of the polyclonal mixture of cells.
Cells were allowed to attach for 12 hours in growth medium (Dulbecco's minimal essential medium with 10% fetal bovine serum), then cultured in the absence of fetal bovine serum for 12 hours to synchronize the cell cycle. Growth medium was then added back to cells, and plates returned to the incubator. Each day for 6 days, cells were removed with trypsin and counted with a hemacytometer.
Another set of experiments were conducted using the same procedure just described to address two issues: (1) whether the autoactive response observed in the first set of experiments was simply a consequence of the transformation process, and (2) to determine what effect ligands had on the ability of CCX CKR to promote cellular growth. […]

Molecule	Effect on protein expression levels [1]	Change in protein expression on addition of ligand [2]	Affinity of CCX CKR for chemokine (CCX CKR [3])	Modulation of CCX CKR function (agonist or antagonist) (CCX CKR [4])	Effect on cell growth [5]
ELC: chemokine, CCX CKR ligand, also referred to as MIP-3β	relatively minor effect on protein expression levels	only a modest change in protein expression	high affinity		
CC1CCCCN1CCCN(Cc1ccc(OCc2ccccc2)cc1)C(=O)NC12CC3CC(CC(C3)C1)C2 (centres unmarked) [Compound II]				Compound II (antagonist)	
CC1CCCCN1CCCN(Cc1ccc(OCc2ccccc2)cc1)C(=O)Nc1ccc(Cl)c(Cl)c1 (centres unmarked) [Compound I]				Compound I (antagonist)	
CCC(c1nc2ccccc2c(=O)n1C)N(Cc1ccco1)C(=O)Nc1cccc(C(F)(F)F)c1 (centres unmarked) [Compound III]				Compound III (agonist)	
TECK: chemokine, CCX CKR ligand (protein, UniProt O15444 24-150, looked up) C-C motif chemokine 25: QGVFEDCCLAYHYPIGWAVLRRAWTYRIQEVSGSCNLPAAIFYLPKRHRKVCGNPKSREVQRAMKLLDARNKVFAKLHHNTQTFQAGPHAVKKLSSGNSKLSSSKFSNPISSSKRNVSLLISANSGL		only a modest change in protein expression	high affinity		modest effect on cell growth activity, with perhaps even a slight decrease in cell growth
SLC: chemokine, CCX CKR ligand, also referred to as 6-Ckine (protein, UniProt O00585 24-134, looked up) C-C motif chemokine 21: SDGGAQDCCLKYSQRKIPAKVVRSYRKQEPSLGCSIPAILFLPRKRSQAELCADPKELWVQQLMQHLDKTPSPQKPAQGCRKDRGASKTGKKGKGSKGCKRTERSQTPKGP		only a modest change in protein expression	high affinity		
